Test: yeast display, Sf9 membrane polyspecificity reagent, FACS + sequencing; frameworks hold sequencing errors
Outline: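 Genes from sorted yeast were amplified by colony PCR, read by MiSeq 2 × 250 sequencing and filtered on CDR length. These cells carried a synthetic nanobody library in Saccharomyces cerevisiae BJ5465 and were sorted by FACS into low and high (top ~1%) gates on anti-HA and streptavidin fluorescence. Polyreactivity is labelled according to the gate of origin.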

| Sequence | polyreactivity (PSR sort gate) |
| --- | --- |
| QVQLVESGGGLVQAGGSLRLSCAASGRTFYKNAMGWYRQAPGKERELVAAISSRGGRTTYADSVKGRFTISRDNAKNTVYLQMNSLKPEDTAVYYCATDWAQVYHGTTKYYYWGQGTQVTVSS | high polyreactivity |
| QVQLVESGGGLVQAGGSLRLSCAASGRTFYKNTMGWYRQAPGKERELVAGISQRGGRTYYADSVKGRFTISRDNAKNTVYLQMNSLKPEDTAVYYCAADRYSYGSNGYPRFEYYYWGQGTQVTVSS | high polyreactivity |
| QVQLVESGGGLVQAGGSLRLSCAASGRTFYKNTMGWYRQAPGKERELVATITRRGGTTYYADSVKGRFTISRDKAKNTVYLQMNSLKPEDTAVYYCAKDASTEKYDYWGQGTQVTVSS | low polyreactivity |
| QVQLVESGGGLVQAGGSLRLSCAASGRTFYKYALGWYRQAPGKERELVAAITSGGSTNYADSVKGRFTISRDNAKYTVYLQMNSLKPEDTAVYYCNASFEENFPFGDYDYWGQGTQVTGSS | high polyreactivity |
| QVQLVESGGGLVQAGGSLRLSCAASGRTFYKYGMGWYRQAPGKERELVAAISWRTTSTYYADSVKGRFTISRDNAKNTVYLQMNSLKPEDTAVYYCNARRYLYFYGRGAQELDYWGQGTQVTVSS | high polyreactivity |
| QVQLVESGGGLVQAGGSLRLSCAASGRTFYKYGMGWYRQAPGKERELVARINSNGGSTYYADSVKGRFTISRDNAKNTVYLQMNSLKPEDTAVYYCAKRGSYRTKPASEYDSWGQGTQVTVSS | low polyreactivity |
| QVQLVESGGGLVQAGGSLRLSCAASGRTFYLNAMGWYRQAPGKEREFVARITWSGGSTYYADSVKGRFTISRDNAKNTVYLQMNSLKPEDTAVYYCIRLSSYHMDYWGQGTQVTVSS | high polyreactivity |
| QVQLVESGGGLVQAGGSLRLSCAASGRTFYLYAMGWYRQAPGKERELVAAITSGGSTYYADSVKGRFTISRDNAKNTVYLQMNSLKPEDTAVYYCAKRPVSVGYGYPRVSWGYDYWGQGTQVTVSS | high polyreactivity |
| QVQLVESGGGLVQAGGSLRLSCAASGRTFYLYGMGWYRQAPGKERELVAAITLSDGSTYYADSVKGRFTISRDNAKNTVYLQMKSLKPEDTAVYYCAARDYPFPYAMNYWGQGTQVTVSS | low polyreactivity |
| QVQLVESGGGLVQAGGSLRLSCAASGRTFYLYTMGWYIQAPGKERELVAAISRGGRTYADSVKGRFTISRDNAKNTVYLQMNSLKPEDTAVYYCAAESVYHGWSYQHGKGDYWGQGTQVTVSS | low polyreactivity |
| QVQLVESGGGLVQAGGSLRLSCAASGRTFYNAMGWYRQAPGKERELVAAITTGGGTKYADSVKGRFTISRDNAKNTVYLQMNSLKPEDTAVYYCNAYRQYRYDYWGQGTQVTVSS | low polyreactivity |
| QVQLVESGGGLVQAGGSLRLSCAASGRTFYNYAMGWYRQAPGKERELVATITGRGGRTFYADSVKGRFTISRDNAKNTVYLQMNSLKPEDTAVYYCDAYRSASPYYTLYVEHDYWGQGTQVTVSS | low polyreactivity |
| QVQLVESGGGLVQAGGSLRLSCAASGRTFYPNAMGWYRQAPGKERELVAAISLSGTRTNYADSVKGRFTISRDNAKNTVYLQMNSLKPEDTAVYYCAARYGNFDGRNYYWGQGTQVTVSS | high polyreactivity |
| QVQLVESGGGLVQAGGSLRLSCAASGRTFYPYAMGWYRKAPGKERELVAAITSDGSTNYADSVKGRFTISRDNAKNTVYLQMNSLKPEDTAVYYCATAGYSWVSYDYWGQGTQVTVSS | low polyreactivity |
| QVQLVESGGGLVQAGGSLRLSCAASGRTFYPYAMGWYRQAPGKERELVARISASGGSTYYADSVKGRFTISRDNAKNTVYLQMNSLKPEDTAVYYCARESFWRSLMDYWGQGTQVTVSS | high polyreactivity |
| QVQLVESGGGLVQAGGSLRLSCAASGRTFYQYAMGWYRQAPGKERELVAAISRRGGTTYYADSVKGRFTISRDNAKNTVYLQMNSLKPEDTAVYYCAASSLPAGEMYYWGQGTQVTVSS | high polyreactivity |

| Sequence | polyreactivity (PSR sort gate) |
| --- | --- |
| QVQLVESGGGLVQAGGSLRLSCAASGRTFYQYDMGWYRQAPGKERDLVAAIDWSGGSTYYADSVKGRFTISRDNAKNTVYLQMNSLKPEDTAVYYCNADAYPHPVVGYDYWGQGTQVTVSS | low polyreactivity |
| QVQLVESGGGLVQAGGSLRLSCAASGRTFYQYDMGWYRQEPGKERAFVADIDWSGGSTYYADSVKGRFTISRDNAKNTVYLQMNSLKPEDTAVYYCNADAYPHPVVGYDYWGQGTQVTVSS | low polyreactivity |
| QVQLVESGGGLVQAGGSLRLSCAASGRTFYRNAMGWYRQAPGKERELVAAISQRGGRTYYADSVKGRFTISRDNAKNSVYLQMNSLKPEDTAVYYCAASPIYPVYRRHGYWGQGTQVTVSS | high polyreactivity |
| QVQLVESGGGLVQAGGSLRLSCAASGRTFYRNAMGWYRQAPGKERELVAAISSGGSTTYADSVKGRFTISRDNAKNTVYLQMNSLKPEDTAVYYCAARSHAGSVSPRLKEYDYWGQGTQVTVSS | low polyreactivity |
| QVQLVESGGGLVQAGGSLRLSCAASGRTFYRNAMGWYRQAPGKERELVAAISWSGGRTFYADSVKGRFTISRDNAKNTVYLQMNSLKPEDTAVYYCAKTYTTPGYYRYDYWGQGTQVTVSS | high polyreactivity |
| QVQLVESGGGLVQAGGSLRLSCAASGRTFYRNAMGWYRQAPGKERELVAAITSSGASTYYADSVKGRFTISRDNAKNTVYLQMNSLKPEDTAVYYCAAKYVYSVGNYRYDYWGQGTQVTVSS | low polyreactivity |
| QVQLVESGGGLVQAGGSLRLSCAASGRTFYRNAMGWYRQAPGKERELVATLNSGGSTHYADSVKGRFTISRDNAKNTVYLQMNSLKPEDTAVYYCAARSPSYRGSLSYYWGQGTQVTVSS | high polyreactivity |
| QVQLVESGGGLVQAGGSLRLSCAASGRTFYRNARGWYRQAPGKERELVAVISSSGVRTYYADSVKGRFTISRDNAKNTVYLQRNSQKPEDTAVYYCAADSNSYYRGFDYWGQGTQVTVSS | high polyreactivity |
| QVQLVESGGGLVQAGGSLRLSCAASGRTFYRNVMGWYRQAPGKVRELVAVITSGGRTNYADSVKGRFTISRDNAKNTVYLQMNSLKPEDTAVYSCNTALSSRSNKMYYWGQGTQVTVSS | high polyreactivity |
| QVQLVESGGGLVQAGGSLRLSCAASGRTFYRYAMGCYRQAPGKERELVAAISWRGGSTNYADSVKGRFTISRDNAKNTVYLQMNSLKPEDTAVYYCNAKFFLPATTRYYYWGQGTQVTVSS | high polyreactivity |
| QVQLVESGGGLVQAGGSLRLSCAASGRTFYRYAMGWYRQAPGKERELVAAITASGGSTYYADSVKGRFTISRDNAKNTVYLQMNSLKPEDTAVYYCAKGGKSRYSTWHGDYWGQGTQVTVSS | high polyreactivity |
| QVQLVESGGGLVQAGGSLRLSCAASGRTFYRYAMGWYRQAPGKERELVAAITWSGGSTYYADSVKGRFTTSRDNAKNTVYLQMNSLKPEDTAVYYCAADAALITYYGWADMYYWGQGTQVTVSS | low polyreactivity |
| QVQLVESGGGLVQAGGSLRLSCAASGRTFYRYAMGWYRQAPGKERELVARIRSGGSTNYADSVKGRFTISRDNAKNTVYLQMNSLKPEDTAVYYCAVDDAYPDRYDYWGQGTQVTVSS | high polyreactivity |
| QVQLVESGGGLVQAGGSLRLSCAASGRTFYRYAMGWYRQAPGKEREYVASITRGGGITYYADSVKGRFTISRDNAKNTVYLQMNSLKPEDSAVYYCAARQYGPRYTFYYWGQGTQVTVSS | high polyreactivity |
| QVQLVESGGGLVQAGGSLRLSCAASGRTFYRYTMGWYRQAPGKERQLVAGISWRGGTTYYADSVKGRFTISRDNAKNTVYLQMNSLKPEDTAVYYCAAKAGYRYGSLAYYKYDYWGLGTQVTVSS | high polyreactivity |

From the nanobody polyreactivity screen of Harvey et al. (2022)
